The source of these data is PMC5132288, “Identification, Heterologous Expression, and Functional Characterization of Bacillus subtilis YutF, a HAD Superfamily 5'-Nucleotidase with Broad Substrate Specificity” (PLoS ONE, 2016).

Holding throughout (format): biochemical, Bacillus subtilis
Substrate in data set [1]: O=P(O)(O)OC[C@H]1O[C@H](OP(=O)(O)OP(=O)(O)O)[C@H](O)[C@@H]1O
Nature of the data set: colorimetric inorganic phosphate release, nonlinear regression. The note with it: 100 mM MES pH 6.0, 5 mM MgCl2, 37°C. The text has this:
(§1) colorimetric inorganic phosphate release, nonlinear regression on Ht-YutF (recombinant YutF, N-terminal hexahistidine tag)

Substrate in data set [2]: Nc1nc2c(ncn2[C@@H]2O[C@H](COP(=O)(O)O)[C@@H](O)[C@H]2O)c(=O)[nH]1
The data set is described as above. The note with it: 100 mM MES pH 6.0, 5 mM MgCl2, 37°C.
Text: as §1

Substrate in data set [3]: O=c1[nH]c(=O)c2ncn([C@@H]3O[C@H](COP(=O)(O)O)[C@@H](O)[C@H]3O)c2[nH]1
The data set is described as above. The note with it: 100 mM MES pH 6.0, 5 mM MgCl2, 37°C.
Text: as §1

Substrate in the data set “purified protein”: O=[N+]([O-])c1ccc(OP(=O)(O)O)cc1
Nature of the data set: purified protein. The note with it: 100 mM Tris-HCl pH 8.9, 5 mM MgCl2, 25°C.

B1: Ht-YutF (recombinant YutF, N-terminal hexahistidine tag) (Bacillus subtilis subsp. subtilis str. 168) (protein)
chain: KTYKGYLIDLDGTMYNGTEKIEEACEFVRTLKDRGVPYLFVTNNSSRTPKQVADKLVSFDIPATEEQVFTTSMATAQHIAQQKKDASVYVIGEEGIRQAIEENGLTFGGENADFVVVGIDRSITYEKFAVGCLAIRNGARFISTNGDIAIPTERGLLPGNGSLTSVLTVSTGVQPVFIGKPESIIMEQAMRVLGTDVSETLMVGDNYATDIMAGINAGMDTLLVHTGVTKREHMTDDMEKPTHAIDSLTEWIPYI
Usually Km stands for the concentration of substrate that gives half-maximal velocity. A word on the kcat: it is the maximal rate divided by the concentration of active sites. As a reminder, the kcat/Km is the turnover number divided by the Michaelis constant. B1: the Km turned out to be 1270 ± 100 µM in data set [1], 6650 ± 1260 µM in data set [2], 1530 ± 110 µM in data set [3] and 1640 ± 60 µM in the data set “purified protein”. Besides, the kcat in data set [1] was 0.17 ± 0.01 s⁻¹; in data set [2] it was 0.06 ± 0.01 s⁻¹; in data set [3], 0.31 ± 0.01 s⁻¹; in the data set “purified protein”, 61 ± 1 s⁻¹. Also, the kcat/Km in data set [1] came to 130 M⁻¹ s⁻¹; in data set [2], 9 M⁻¹ s⁻¹; in data set [3], 210 M⁻¹ s⁻¹; in “purified protein” it was 37000 M⁻¹ s⁻¹.
